From PMC12053792 (Journal of Peptide Science, 2025)
“Also recorded” adds a separate entry of the source.

Key:
[1] = Circular dichroism (secondary structure); assay type: physicochemical
Procedure: CysBAGE4‐MalLNP and 2‐LNP formulations were analysed using DLS, circular dichroism (CD), and TEM. DLS analysis: CysBAGE4‐MalLNP and 2‐LNP formulations were diluted with Milli‐Q water and transferred to disposable cuvettes before measurement at 25°C with a 173° light scattering angle, […]. CD analysis: CysBAGE4‐MalLNP and 2‐LNP formulations were diluted with Milli‐Q water and analysed using a quartz cell with a 0.01 mm path length. Spectra were measured using a 0.5 nm step, 1 nm bandwidth and 1 s collection time per step. […]
NMR samples were analysed on either a Bruker AVIII 400 NMR system (1H-NMR frequency 400 MHz; 13C-NMR frequency 101 MHz) or a Bruker 500 MHz system (1H-NMR frequency 500 MHz; 13C-NMR frequency 125 MHz). […]
High-resolution mass spectra were recorded on a Bruker MicroTOF Focus II MS (ESI) operating in positive or negative ionisation mode. […]
Peptides were analyzed using a Waters Sunfire 5 μm, 2.1 x 150 mm column (C-18) at a flow rate of 0.6 mL/min. […]
Dynamic Light Scattering (DLS) Spectra were recorded using a Zetasizer Nano ZS (Malvern Panalytical) to measure the particle size and charge. […]
Circular Dichroism (CD) Spectra were recorded using a Chirascan spectropolarimeter (Applied Photophysics, U.K.). […]
windows, with 0.01 mm path length. Spectra were measured using a 0.5 nm step, 1 nm […]

[2] = test system: HHDII/DR1 mice; assay: In vivo toxicity in HHDII/DR1 mice; parameters: species or system HHDII/DR1 (HLA‐A2 transgenic) mice; conditions: 10 nmol in 50 μL s.c., days 1, 8 and 15, n = 3
Procedure: Animal experiments were carried out with ethical approval from University of Nottingham ethical review board and under a Home Office approved project license (PP2706800). Mice were dosed with 10 nmol of material in 50 μL at Days 1, 8 and 15 (n = 3). IFNϒ ELISpot assays on splenocytes were conducted on termination at Day 21. General methods for the ELISpot can be found in the Supporting Information. Preparation of media and buffers and steps performed on Days 1 and 2 post‐termination; the ELISpot assays were performed using a laminar flow cabinet and aseptic techniques to ensure the sterility of media, reagents and plates at stages before development of the ELISpot. Development of the ELISpot on Day 4 posttermination was performed on the laboratory bench.
In Vivo Evaluation (ELISpot Assay)
Animal experiments were carried out with ethical approval from University of Nottingham ethical review boards and under a Home Office approved project license (PP2706800). HLA-HHDII/DR1 (HLA-A2.1+/+ HLADR1+/+, Pasteur Institute) transgenic mice knocked out for murine MHC-I and II and expressing chimeric HLA-A2 (HHDII) and human HLA-DR1 or Balb/c mice (Charles River) aged 6-12 weeks were used. Mice were vaccinated with 10 ηmol of each immunogen at each timepoint. Doses were delivered subcutaneously (s.c.) in 50 µl volume on days 1, 8 and 15. No anaesthesia was used for injections. […]

Substance: 3: vaccine‐adjuvant construct Pam2Cys‐SK4‐NY‐ESO‐1_157‐165 [compound 3]
- α‐helical character (f α) ([1]; CD spectra, Figures S12 and S13): 0.41
- Secondary structure (in words) ([1]; CD, 0.01 mm path length, 180–280 nm): form α‐helical structures; also recorded: significantly more α‐helical character
- In vivo toxicity outcome [2]: non‐toxic
